Assay results reported in patent publication US20220144966A1 (SORRENTO THERAPEUTICS, published 2022).

T1: recombinant mouse CD38/His-tag (Sino Biological, catalog #50191-M08H) (mouse, UniProt P56528 45-304)
T1 construct: Bought protein; also called murine CD38 protein; not shown: His-tag
T1 sequence: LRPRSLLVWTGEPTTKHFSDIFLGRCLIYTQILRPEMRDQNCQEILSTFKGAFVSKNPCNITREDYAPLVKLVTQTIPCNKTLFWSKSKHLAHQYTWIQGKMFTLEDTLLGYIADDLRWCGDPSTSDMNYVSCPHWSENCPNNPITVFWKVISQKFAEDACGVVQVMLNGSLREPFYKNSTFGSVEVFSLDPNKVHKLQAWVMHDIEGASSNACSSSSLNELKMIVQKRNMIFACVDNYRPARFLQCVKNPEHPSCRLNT


Tests used:
[1] = biological target: T2, cynomolgus CD38 on cynomolgus monkey T cells (cynomolgus monkey, UniProt Q5VAN0 1-300); test: flow cytometry on cynomolgus peripheral blood lymphocytes co-stained with anti-CD3 FITC
T2 construct: Native CD38 on peripheral blood lymphocytes from cynomolgus monkey blood, co-stained with anti-CD3 FITC; also called cynomolgus T cells

[2] = biological target: T1, recombinant mouse CD38/His-tag (Sino …); test: ELISA, His-tagged CD38 captured on Ni-NTA plate, HRP anti-human Fc, OD 450 nm
[3] = biological target: T3, recombinant cynomolgus CD38/His-tag (Sino Biological, catalog #90050-C08H) (cynomolgus monkey, UniProt Q5VAN0 44-300); test: ELISA, His-tagged CD38 captured on Ni-NTA plate, antibody about 1 µg/mL
T3 construct: Bought protein; also called cynomolgus CD38 protein; not shown: His-tag

[4] = biological target: human CD38 on cells (Raji, Ramos, RPMI 8226, human T cells) (human, UniProt P28907 1-300); test: flow cytometry on non-activated or activated human T cells, 10, 1 or 0.1 µg/mL

| binding result [1] | binding result [2] | binding result [3] | binding result [4] | Binder |
| --- | --- | --- | --- | --- |
| binds | no binding (tested: about 1 µg/mL) | binds |  | parent antibody A2 (antibody, V domains shown, Only variable domains are tied to A2; also called A2-IgG1; anti-CD38-A2 parent antibody) VH: QVQLVESGGGLVKPGGSLRLSCAASGFTFSDDYMSWIRQAPGKGLEWVASVSNGRPTTYYADSVRGRFTISRDNAKNSLYLQMNSLRAEDTAVYYCAREDWGGEFTDWGRGTLVTVSS VL: QAGLTQPPSASGTSGQRVTISCSGSSSNIGINFVYWYQHLPGTAPKLLIYKNNQRPSGVPDRFSGSKSGNSASLAISGLRSEDEADYYCAAWDDSLSGYVFGSGTKVTVL |
|  |  |  | binds | variant antibody 3E10 (antibody, V domains shown, it was captured by anti-human Fc in SPR) VH: QVQLVESGGGLVKPGGSLRLSCAASGFTFSDDYMSWIRQAPGKGLEWVASVSNGRPTTYYADSVRGRFTISRDNAKNSLYLQMNSLRAEDTAVYYCAREDWGGEFTDWGRGTLVTVSS VL: QAGLTQPPSASGTSGQRVTISCSGSSSNIGFHFVYWYQHLPGTAPKLLIYKNNQRPSGVPDRFSGSKSGNSASLAISGLRSEDEADYYCAAWDDSLSGYVFGSGTKVTVL |
| binds |  |  |  | variant antibody 3H10m1 (antibody, V domains shown) VH: QVQLVESGGGLVKPGGSLRLSCAASGFTFSDDYMSWIRQAPGKGLEWVASVSNGRPTTYYADSVRGRFTISRDNAKNSLYLQMNSLRAEDTAVYYCAREGWSGEFTDWGQGTLVTVSS VL: QAGLTQPPSASGTSGQRVTISCSGSSSNIGFHFVYWYQHLPGTAPKLLIYKNNQRPSGVPDRFSGSKSGNSASLAISGLRSEDEADYYCAAWDDSLSGYVFGSGTKVTVL |
| binds |  |  |  | variant antibody 3G3 (antibody, V domains shown) VH: QVQLVESGGGLVKPGGSLRLSCAASGFTFSDDYMSWIRQAPGKGLEWVASVSNGRPTTYYADSVRGRFTISRDNAKNSLYLQMNSLRAEDTAVYYCAREAWSGEFTDWGQGTLVTVSS VL: QAGLTQPPSASGTSGQRVTISCSGSSSNIGINFVYWYQHLPGTAPKLLIYKNNQRPSGVPDRFSGSKSGNSASLAISGLRSEDEADYYCAAWDDSLSGYVFGSGTKVTVL |
